From patent US20220153853A1 (JIANGSU HENGRUI MEDICINE, published 2022)
Positions count from the first letter of the chain named.

B1: hu1803-1 (antibody, human IgG4 S228P, kappa, F234A L235A, V domains shown)
VH: EVQLVQSGAEVKKPGASVKVSCKASGYTFTDYWIEWVRQAPGQGLEWMGEILPGSTYTNYNEKFKGRVTMTRDTSTSTVYMELSSLRSEDTAVYYCARGLSTLMAVDYFDYWGQGTTVTVSS
VL: DIQMTQSPSSLSASVGDRVTITCRASQDISNYLNWYQQKPGKAPKLLIYYSSTLHSGVPSRFSGSGSGTDFTLTISSLQPEDFATYYCQQTNIFPWTFGGGTKVEIKR
B2: hu1803-8 (antibody, human IgG4 S228P, kappa, F234A L235A, V domains shown)
VH: B1 VH with R38K, M48I, V68A, M70F, R72A, T74P, V79A, A97S
VL: B1 VL with K42G, P44V, F71Y, Y87F
B3: hu1803-6 (antibody, human IgG4 S228P, kappa, F234A L235A, V domains shown)
VH: B1 VH with M70F, R72A, V79A
VL: B1 VL with K42G, P44V, F71Y, Y87F
B4: hu1803-2 (antibody, human IgG4 S228P, kappa, F234A L235A, V domains shown)
VH: B1 VH with M70F, R72A, V79A
VL: B1 VL
B5: hu1803-3 (antibody, human IgG4 S228P, kappa, F234A L235A, V domains shown)
VH: B1 VH with M48I, V68A, M70F, R72A, V79A, A97S
VL: B1 VL
B6: hu1810-7 (antibody, human IgG4 S228P, kappa, F234A L235A, V domains shown)
VH: QVQLVQSGAEVKKPGSSVKVSCKASGGTFSNYAISWVRQAPGQGLEWIGEIYPTSGNTYYNEKFKGRATLTADRSTSTMYMELSSLRSEDTAVYYCASGVITTVVSTDYFDYWGQGTLVTVSS
VL: B1 VL with Q27L, P44V, S51T, P59S, F71Y, T91G, I93M, F94V, W96Y
B7: hu1810-4 (antibody, human IgG4 S228P, kappa, F234A L235A, V domains shown)
VH: B6 VH with R38K, R67K
VL: B1 VL with Q27L, S51T, T91G, I93M, F94V, W96Y
B8: hu1803-11 (antibody, human IgG4 S228P, kappa, F234A L235A, V domains shown)
VH: B1 VH with M48I, V68A, M70F, R72A, V79A, A97S
VL: B1 VL with P44V, F71Y
B9: hu1810-6 (antibody, human IgG4 S228P, kappa, F234A L235A, V domains shown)
VH: B6 VH with I48M, A68V, L70I
VL: B1 VL with Q27L, P44V, S51T, P59S, F71Y, T91G, I93M, F94V, W96Y
B10: hu1810-8 (antibody, human IgG4 S228P, kappa, F234A L235A, V domains shown)
VH: B6 VH with R38K, R67K
VL: B1 VL with Q27L, P44V, S51T, P59S, F71Y, T91G, I93M, F94V, W96Y
B11: hu1810-2 (antibody, human IgG4 S228P, kappa, F234A L235A, V domains shown)
VH: B6 VH with I48M, A68V, L70I
VL: B1 VL with Q27L, S51T, T91G, I93M, F94V, W96Y
B12: hu1810-1 (antibody, human IgG4 S228P, kappa, F234A L235A, V domains shown)
VH: B6 VH with I48M, A68V, L70I, R74K, M79A, S98R
VL: B1 VL with Q27L, S51T, T91G, I93M, F94V, W96Y
B13: hu1803-12 (antibody, human IgG4 S228P, kappa, F234A L235A, V domains shown)
VH: B1 VH with R38K, M48I, V68A, M70F, R72A, T74P, V79A, A97S
VL: B1 VL with P44V, F71Y
B14: hu1803-7 (antibody, human IgG4 S228P, kappa, F234A L235A, V domains shown)
VH: B1 VH with M48I, V68A, M70F, R72A, V79A, A97S
VL: B1 VL with K42G, P44V, F71Y, Y87F
B15: hu1803-4 (antibody, human IgG4 S228P, kappa, F234A L235A, V domains shown)
VH: B1 VH with R38K, M48I, V68A, M70F, R72A, T74P, V79A, A97S
VL: B1 VL
B16: hu1803-5 (antibody, human IgG4 S228P, kappa, F234A L235A, V domains shown)
VH: B1 VH
VL: B1 VL with K42G, P44V, F71Y, Y87F
B17: hu1803-10 (antibody, human IgG4 S228P, kappa, F234A L235A, V domains shown)
VH: B1 VH with M70F, R72A, V79A
VL: B1 VL with P44V, F71Y
B18: hu1810-5 (antibody, human IgG4 S228P, kappa, F234A L235A, V domains shown)
VH: B6 VH with I48M, A68V, L70I, R74K, M79A, S98R
VL: B1 VL with Q27L, P44V, S51T, P59S, F71Y, T91G, I93M, F94V, W96Y
B19: hu1810-3 (antibody, human IgG4 S228P, kappa, F234A L235A, V domains shown)
VH: B6 VH
VL: B1 VL with Q27L, S51T, T91G, I93M, F94V, W96Y
B20: hu1810-9 (antibody, human IgG4 S228P, kappa, F234A L235A, V domains shown)
VH: B6 VH with I48M, A68V, L70I, R74K, M79A, S98R
VL: DIQMTQSPSSLSASVGDRVTITCRASLDISNYLNWYQLKPGKAVKLLIYYTSTLHSGVSSRFSGSGSGTEYTLTISSLQPEDFATYYCQQGNMVPYTFGGGTKVEIKR
B21: hu1810-10 (antibody, human IgG4 S228P, kappa, F234A L235A, V domains shown)
VH: B6 VH with I48M, A68V, L70I
VL: B20 VL
B22: hu1810-11 (antibody, human IgG4 S228P, kappa, F234A L235A, V domains shown)
VH: B6 VH
VL: B20 VL
B23: ch1803 (antibody, human IgG4 S228P, kappa, F234A L235A, V domains shown)
VH: QFQLHQSGAELVKPGASVKLSCKATGYTFTDYWIEWVKQRPGHGLEWIGEILPGSTYTNYNEKFKGRATFTAEPSSSSAYMQLSGLTTEDSAIYYCSRGLSTLMAVDYFDYWGQGTTLTVSS
VL: DIQMTQTTSSLSASLGDRVTINCRASQDISNYLNWYQQKPDGTVKLLIYYSSTLHSGVPSRFSGSGSGTDYSLTISHLEQEDIATYFCQQTNIFPWTFGGGTKLEIRT
notes: IgG4-AA / kappa chimeric antibody
B24: ch1810 (antibody, human IgG4 S228P, kappa, F234A L235A, V domains shown)
VH: QVQLQQSGTELARPGTSVTLSCKASGYTFTNYAISWVKQRTGQGLEWIGEIYPTSGNTYYNEKFKGKATLTADRSSKTMYMELRSLTSVDSAVYFCASGVITTVVSTDYFDYWGQGSPLTVSS
VL: DIQMTQIPSSLSVSLGDRVTISCRASLDISNYLNWYQLKPDGTVKLLIYYTSTLHSGVSSRFSGSGSGTEYSLTISNLEQEDIATYFCQQGNMVPYTFGGGTKLEIKR
B25: ch1817 (antibody, human IgG4 S228P, kappa, F234A L235A, V domains shown)
VH: EVQLVESGGDLVQPGRSMKLSCAASGFTFSNYYMAWVRQAPTKGLEWVASISTGGVNTYYRDSVKGRFTISRDNAKNNLYLQMDSLRSEETATYYCARHTTADYFYGIYFALDAWGQGTSVTVSS
VL: QFTLTQPKSVSGSLRSTITIPCERSSGDIGDSYVNWYQQHLGRPPLNVIYADVQRPSEVSDRFSGSIDSSSNSASLTITNLQMDDEADYFCQSYDTNIDIIFGGGTKLTVLR
notes: as for B23
B26: ch1822 (antibody, human IgG4 S228P, kappa, F234A L235A, V domains shown)
VH: B25 VH with Q3R, L11F, M18V, A49G, K76E, N77S, N78T, A102P, F105H, L112M
VL: B25 VL with F2V, D31E, L46I, V53D, M83V, T96S, N97S, I101F
notes: as for B23

What follows are binders tested against T1, human GCGR (full-length glucagon receptor of 477 amino acids) (human, UniProt P47871 26-477) (assay: cell-based or functional assay).
T1 sequence (P47871 26-477 limits assumed): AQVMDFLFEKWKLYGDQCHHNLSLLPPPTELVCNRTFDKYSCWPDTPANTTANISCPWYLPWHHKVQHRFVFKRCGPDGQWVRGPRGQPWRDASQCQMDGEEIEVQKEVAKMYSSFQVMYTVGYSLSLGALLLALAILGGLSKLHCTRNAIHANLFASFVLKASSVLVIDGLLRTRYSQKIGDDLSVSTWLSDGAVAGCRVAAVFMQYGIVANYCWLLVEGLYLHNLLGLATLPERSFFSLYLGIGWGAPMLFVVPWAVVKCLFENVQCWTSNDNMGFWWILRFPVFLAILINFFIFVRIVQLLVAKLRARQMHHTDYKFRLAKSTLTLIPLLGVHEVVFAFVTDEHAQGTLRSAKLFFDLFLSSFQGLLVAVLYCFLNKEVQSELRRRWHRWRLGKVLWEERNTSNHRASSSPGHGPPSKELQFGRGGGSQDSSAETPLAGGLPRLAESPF

| Binder | IC50 [nM] | Imax [%] |
| --- | --- | --- |
| B1 | 191 | 91.8 |
| B2 | 85.9 | 100 |
| B3 | 77.5 | 100 |
| B4 | 137 | 98.5 |
| B5 | 110 | 96.7 |
| B6 | 119 | 100 |
| B7 | 138 | 99.1 |
| B8 | 88.7 | 100 |
| B9 | 157 | 100 |
| B10 | 133 | 100 |
| B11 | 106 | 100 |
| B12 | 189 | 83.2 |
| B13 | 86.9 | 100 |
| B14 | 73 | 100 |
| B15 | 140 | 100 |
| B16 | 79 | 100 |
| B17 | 76.7 | 100 |
| B18 | 216 | 86.4 |
| B19 | 192 | 95.4 |
| B20 | 125 | 90.4 |
| B21 | 95.6 | 97.4 |
| B22 | 91.3 | 99.6 |

What follows are binders tested against T1, human GCGR (full-length glucagon …) (assay: cell ELISA on fixed CHO cells overexpressing GCGR).
Method: (§1) The expression levels of GCGR were detected after two weeks of pressure screening, After the GCGR-overexpressing cells were fixed to the bottom of 96-well plate, the antibodies were added and the signal strength was used to determine the binding activity of the antibody to GCGR overexpressing CHO cells. The binding abilities of the antibody to the three species of GCGRs were detected with the same binding assay. As an example, the binding of the GCGR antibodies to human GCGR was detected by an assay specifically described as follows:
(§2) The cells were seeded in a 96-well plate at a density of 0.9-1.0×10⁶/ml, 100 μl/well and cultured overnight. The supernatant was discarded, the plate was washed three times with PBS, 100 μl/well of cell immune fixed solution (Beyotime, Cat No. P0098) was added and fixed for an hour at room temperature, and washed four times with PBS. The liquid was discarded, 200 μl/well blocking solution (5% skim milk (BD skim milk, Cat Wo. 232100) diluted with PBS) was added, and incubated in an incubator at 37° C. for 3 hours for blocking. After the blocking was finished, the blocking solution was discarded, the plate was washed 3 times with PBST buffer (PBS comprising 0.05% tweenW-20, pH7.4), 50 μl/well of various concentrations of each of the test antibodies (antibodies purified from hybridoma, chimeric antibodies or humanized antibodies) diluted with sample dilution solution were added, and incubated in an incubator at 37° C. for 2 hours. After the incubation was finished, the plate was washed 3 times with PBST, 50 μl/well of HRP-labeled goat anti-mouse secondary antibody (JacksoW ImmuWo Research, Cat No. 115-035-003) or goat anti-human secondary antibody (JacksoW ImmuWo Research, Cat Wo. 109-035-003) diluted with sample dilution solution was added, and incubated at 37° C. for 1 hour. The plate was washed 3 times with PBST, 50 μl/well of TMB chromogenic substrate (KPL, Cat Wo. 52-00-03) was added, incubated at room temperature for 10 min, and 50 μl/well of 1M H₂SO4 was added to stop the reaction. The absorbance value was read by a microplate reader (Thermo scientific Multiskan MK3) at a wavelength of 450 nm, and the data was analyzed with GraphPad Prism 5. The binding of GCGR chimeric antibodies to GCGR-overepressing CHO cells was calculated as EC50 value.

| Binder | EC50 [nM] |
| --- | --- |
| B23 | 0.117 |
| B24 | 0.117 |
| B25 | 0.193 |
| B26 | 0.383 |

These binders were tested against T2, Cynomolgus monkey GCGR (cynomolgus monkey) (assay: cell ELISA on fixed CHO cells overexpressing GCGR).
T2 construct: whole, on cells; also called cynomolgus GCGR
Method: as §1, §2

| Binder | EC50 [nM] |
| --- | --- |
| B23 | 0.213 |
| B24 | 0.248 |
| B25 | 0.297 |
| B26 | 0.428 |

The binders below were run against T3, Mouse GCGR (mouse, UniProt Q61606 27-485) (assay: cell ELISA on fixed CHO cells overexpressing GCGR).
T3 construct: whole, on cells; also called mouse glucagon receptor
Method: as §1, §2

T3 sequence (Q61606 27-485): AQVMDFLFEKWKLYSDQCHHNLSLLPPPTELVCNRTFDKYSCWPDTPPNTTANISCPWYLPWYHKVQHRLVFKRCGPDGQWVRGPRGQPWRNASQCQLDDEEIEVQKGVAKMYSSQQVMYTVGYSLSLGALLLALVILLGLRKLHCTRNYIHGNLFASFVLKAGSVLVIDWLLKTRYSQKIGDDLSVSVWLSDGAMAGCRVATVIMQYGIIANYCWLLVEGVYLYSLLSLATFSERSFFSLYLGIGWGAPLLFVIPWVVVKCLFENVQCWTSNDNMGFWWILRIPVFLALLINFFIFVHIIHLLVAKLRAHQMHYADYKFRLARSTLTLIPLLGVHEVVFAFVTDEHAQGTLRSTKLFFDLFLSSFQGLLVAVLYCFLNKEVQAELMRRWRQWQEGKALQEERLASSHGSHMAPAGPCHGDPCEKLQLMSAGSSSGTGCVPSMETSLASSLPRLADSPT

| Binder | EC50 [nM] |
| --- | --- |
| B23 | 0.718 |
| B24 | 0.442 |
| B25 | 0.164 |
| B26 | 0.568 |

Molecular target: T1, human GCGR (full-length glucagon …)
Assay: cell-based or functional assay
Remark: another data set of the same source

| Binder | IC50 [nM] | Imax [%] |
| --- | --- | --- |
| B23 | 79.3 | 100 |
| B24 | 72.5 | 100 |
| B25 | 59.8 | 83 |
| B26 | 62.5 | 59 |

These binders were tested against T3, Mouse GCGR (assay: cell-based or functional assay).

| Binder | IC50 [nM] | Imax (%) |
| --- | --- | --- |
| B23 | 24.7 | 93 |
| B25 | 12.8 | 96 |
| B26 | 16 | 87 |
